Laboratory results from patent US20040241754A1, “Modulating neuronal plasticity” (The Salk Institute for Biological Studies, priority 2003, published 2004).

T1: His-GRIP(PDZ4-6) (rat, UniProt P97879 448-792)
T1 construct: range 448-792; not shown: His tag and vector residues from pRSET
T1 sequence (looked up): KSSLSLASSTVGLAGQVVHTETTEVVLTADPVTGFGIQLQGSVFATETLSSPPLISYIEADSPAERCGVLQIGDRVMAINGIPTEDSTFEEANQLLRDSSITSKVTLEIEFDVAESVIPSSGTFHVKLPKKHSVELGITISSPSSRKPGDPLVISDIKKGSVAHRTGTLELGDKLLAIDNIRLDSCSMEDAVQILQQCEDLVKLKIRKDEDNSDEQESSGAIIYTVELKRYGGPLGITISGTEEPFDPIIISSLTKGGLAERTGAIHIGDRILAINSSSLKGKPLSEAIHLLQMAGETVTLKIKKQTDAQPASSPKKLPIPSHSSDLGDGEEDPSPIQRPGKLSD


Key:
EphA4 = EphA4 (Homo sapiens, UniProt P54764); conditions: read-out: Kd for binding to EphA4; cited from earlier work
Chain of EphA4 (P54764 20-986, species assumed): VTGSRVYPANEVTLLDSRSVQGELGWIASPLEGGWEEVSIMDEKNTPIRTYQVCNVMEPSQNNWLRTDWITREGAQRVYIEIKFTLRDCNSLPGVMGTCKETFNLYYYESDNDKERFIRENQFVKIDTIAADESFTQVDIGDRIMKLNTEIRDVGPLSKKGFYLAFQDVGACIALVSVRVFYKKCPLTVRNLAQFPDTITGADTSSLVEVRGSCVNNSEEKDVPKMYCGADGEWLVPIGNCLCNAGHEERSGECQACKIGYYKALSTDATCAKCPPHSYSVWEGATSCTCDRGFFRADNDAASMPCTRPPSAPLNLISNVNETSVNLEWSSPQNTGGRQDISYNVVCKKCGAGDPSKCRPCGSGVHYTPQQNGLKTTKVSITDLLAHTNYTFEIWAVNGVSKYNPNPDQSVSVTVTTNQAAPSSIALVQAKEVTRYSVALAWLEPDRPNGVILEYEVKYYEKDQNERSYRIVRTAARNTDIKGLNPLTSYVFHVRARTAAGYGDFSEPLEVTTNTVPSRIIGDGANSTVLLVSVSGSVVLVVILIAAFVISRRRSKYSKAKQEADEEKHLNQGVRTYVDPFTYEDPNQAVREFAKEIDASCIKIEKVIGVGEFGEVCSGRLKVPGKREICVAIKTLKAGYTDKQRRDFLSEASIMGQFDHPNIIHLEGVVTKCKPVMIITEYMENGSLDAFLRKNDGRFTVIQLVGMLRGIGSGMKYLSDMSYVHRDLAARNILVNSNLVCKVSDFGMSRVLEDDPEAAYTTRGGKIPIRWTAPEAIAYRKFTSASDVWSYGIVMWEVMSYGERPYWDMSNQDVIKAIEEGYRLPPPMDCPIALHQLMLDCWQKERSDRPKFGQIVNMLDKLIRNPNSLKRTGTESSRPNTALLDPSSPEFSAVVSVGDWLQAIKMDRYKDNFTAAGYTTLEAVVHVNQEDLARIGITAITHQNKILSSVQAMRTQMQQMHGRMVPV

EphB1 = conditions: read-out: Kd for binding to EphB1; cited from earlier work
EphA3 = conditions: read-out: Kd for binding to EphA3; cited from earlier work
His-GRIP(PDZ4-6) = molecular target: T1, His-GRIP(PDZ4-6); assay: displacement of ^35S-EphB2 (50 nM) from His-GRIP-PDZ4-6, Hill fit

Ki (His-GRIP(PDZ4-6)) [nM]	Molecule	Kd (EphA4) [nM]	Kd (EphB1) [nM]	Kd (EphA3) [nM]
–	ephrin-A4: a 201 amino acid polypeptide; ephrin ligand (protein, UniProt P52798 26-170, looked up) Ephrin-A4: LRHVVYWNSSNPRLLRGDAVVELGLNDYLDIVCPHYEGPGPPEGPETFALYMVDWPGYESCQAEGPRAYKRWVCSLPFGHVQFSEKIQRFTPFSLGFEFLPGETYYYISVPTPESSGQCLRLQVSVCCKERKSESAHPVGSPGES	5	20	–
–	ephrin-B1: a 45 kDa, 346 amino acid glycosylated polypeptide; ephrin ligand (protein, UniProt P98172 1-346, looked up, full-length, a 45 kDa, 346 amino acid glycosylated polypeptide; ephrin ligand) MARPGQRWLGKWLVAMVVWALCRLATPLAKNLEPVSWSSLNPKFLSGKGLVIYPKIGDKLDIICPRAEAGRPYEYYKLYLVRPEQAAACSTVLDPNVLVTCNRPEQEIRFTIKFQEFSPNYMGLEFKKHHDYYITSTSNGSLEGLENREGGVCRTRTMKIIMKVGQDPNAVTPEQLTTSRPSKEADNTVKMATQAPGSRGSLGDSDGKHETVNQEEKSGPGASGGSSGDPDGFFNSKVALFAAVGAGCVIFLLIIIFLTVLLLKLRKRHRKHTQQRAAALSLSTLASPKGGSGTAGTEPSDIIIPLRTTENNYCPHYEKVSGDYGHPVYIVQEMPPQSPANIYYKV	–	0.925	350
43	QMNQIQSVEV (also called EphB2 peptide) [EphB2 carboxy terminal peptide]	–	–	–
